Results from patent publication US20240117018A1.

Key:
Experiment in all cases: cell-based or functional assay
[1] = molecular target: HIV-1 Env of pseudovirus 0815.v3.c3 (HIV-1)
[2] = molecular target: HIV-1 Env of pseudovirus 211-9 (HIV-1)
[3] = molecular target: HIV-1 Env of pseudovirus 231966.c02 (HIV-1)
[4] = molecular target: HIV-1 Env of pseudovirus 235-47 (HIV-1)
[5] = molecular target: HIV-1 Env of pseudovirus 3103.v3.c10 (HIV-1)
[6] = molecular target: HIV-1 Env of pseudovirus 3301.v1.c24 (HIV-1)
[7] = molecular target: HIV-1 Env of pseudovirus 3817.v2.c59 (HIV-1)
[8] = molecular target: HIV-1 Env of pseudovirus 6041.v3.c23 (HIV-1)
[9] = molecular target: HIV-1 Env of pseudovirus 6480.v4.c25 (HIV-1)
[10] = molecular target: HIV-1 Env of pseudovirus 6540.v4.c1 (HIV-1)
[11] = molecular target: HIV-1 Env of pseudovirus 6811.v7.c18 (HIV-1)
[12] = molecular target: HIV-1 Env of pseudovirus 89-F1_2_25 (HIV-1)
[13] = molecular target: HIV-1 Env of pseudovirus BJOX009000.02.4 (HIV-1)
[14] = molecular target: HIV-1 Env of pseudovirus BJOX010000.06.2 (HIV-1)
[15] = molecular target: HIV-1 Env of pseudovirus BJOX015000.11.5 (HIV-1)
[16] = molecular target: HIV-1 Env of pseudovirus BJOX025000.01.1 (HIV-1)
[17] = molecular target: HIV-1 Env of pseudovirus BJOX028000.10.3 (HIV-1)
[18] = molecular target: HIV-1 Env of pseudovirus C1080.c03 (HIV-1)
[19] = molecular target: HIV-1 Env of pseudovirus C3347.c11 (HIV-1)
[20] = molecular target: HIV-1 Env of pseudovirus C4118.c09 (HIV-1)
[21] = molecular target: HIV-1 Env of pseudovirus P0402_c2_11 (HIV-1)
[22] = molecular target: HIV-1 Env of pseudovirus P1981_C5_3 (HIV-1)
[23] = molecular target: HIV-1 Env of pseudovirus R1166.c01 (HIV-1)
[24] = molecular target: HIV-1 Env of pseudovirus R2184.c04 (HIV-1)
[25] = molecular target: HIV-1 Env of pseudovirus R3265.c06 (HIV-1)
[26] = molecular target: HIV-1 Env of pseudovirus T251-18 (HIV-1)
[27] = molecular target: HIV-1 Env of pseudovirus T255-34 (HIV-1)
[28] = molecular target: HIV-1 Env of pseudovirus X1193_c1 (HIV-1)
[29] = molecular target: HIV-1 Env of pseudovirus X1632_S2_B10 (HIV-1)
[30] = molecular target: HIV-1 Env of pseudovirus X2088_c9 (HIV-1)
[31] = molecular target: HIV-1 Env of pseudovirus X2131_C1_B5 (HIV-1)

Substance PG16 (antibody) has an IC50 neutralization (TZM.bl) [1] of over 50 µg/mL, an IC80 neutralization (TZM.bl) [1] of over 50 µg/mL and an IC50 neutralization (TZM.bl) [2] of 0.029 µg/mL. The IC80 neutralization (TZM.bl) [2] was 0.144 µg/mL, the IC50 neutralization (TZM.bl) [3] was 0.007 µg/mL and the IC80 neutralization (TZM.bl) [3] was 0.031 µg/mL. It also gave an IC50 neutralization (TZM.bl) [4] of 0.092 µg/mL, an IC80 neutralization (TZM.bl) [4] of 4.51 µg/mL and an IC50 neutralization (TZM.bl) [5] of 25.4 µg/mL. For the same substance, the IC80 neutralization (TZM.bl) [5] was over 50 µg/mL, the IC50 neutralization (TZM.bl) [6] was 0.02 µg/mL and the IC80 neutralization (TZM.bl) [6] was 0.087 µg/mL. It also gave an IC50 neutralization (TZM.bl) [7] of 0.008 µg/mL, an IC80 neutralization (TZM.bl) [7] of 0.06 µg/mL and an IC50 neutralization (TZM.bl) [8] of 0.048 µg/mL. The IC80 neutralization (TZM.bl) [8] was 0.256 µg/mL, the IC50 neutralization (TZM.bl) [9] was over 50 µg/mL and the IC80 neutralization (TZM.bl) [9] was over 50 µg/mL. The IC50 neutralization (TZM.bl) [10] was 0.035 µg/mL, the IC80 neutralization (TZM.bl) [10] was 0.42 µg/mL and the IC50 neutralization (TZM.bl) [11] was over 50 µg/mL. For the same substance, the IC80 neutralization (TZM.bl) [11] was over 50 µg/mL, the IC50 neutralization (TZM.bl) [12] was 47.6 µg/mL and the IC80 neutralization (TZM.bl) [12] was over 50 µg/mL. The IC50 neutralization (TZM.bl) [13] was 1.19 µg/mL, the IC80 neutralization (TZM.bl) [13] was 22.1 µg/mL and the IC50 neutralization (TZM.bl) [14] was 1.2 µg/mL. The IC80 neutralization (TZM.bl) [14] was over 50 µg/mL, the IC50 neutralization (TZM.bl) [15] was 3.13 µg/mL and the IC80 neutralization (TZM.bl) [15] was over 50 µg/mL. The IC50 neutralization (TZM.bl) [16] was 0.071 µg/mL, the IC80 neutralization (TZM.bl) [16] was over 50 µg/mL and the IC50 neutralization (TZM.bl) [17] was over 50 µg/mL. It also gave an IC80 neutralization (TZM.bl) [17] of over 50 µg/mL, an IC50 neutralization (TZM.bl) [18] of 0.001 µg/mL and an IC80 neutralization (TZM.bl) [18] of 0.003 µg/mL. For the same substance, the IC50 neutralization (TZM.bl) [19] was 0.008 µg/mL, the IC80 neutralization (TZM.bl) [19] was 0.045 µg/mL and the IC50 neutralization (TZM.bl) [20] was 0.022 µg/mL. For the same substance, the IC80 neutralization (TZM.bl) [20] was 0.143 µg/mL, the IC50 neutralization (TZM.bl) [21] was 0.025 µg/mL and the IC80 neutralization (TZM.bl) [21] was 0.411 µg/mL. It also gave an IC50 neutralization (TZM.bl) [22] of 0.376 µg/mL, an IC80 neutralization (TZM.bl) [22] of over 50 µg/mL and an IC50 neutralization (TZM.bl) [23] of 0.28 µg/mL. The IC80 neutralization (TZM.bl) [23] was 4.38 µg/mL, the IC50 neutralization (TZM.bl) [24] was 0.67 µg/mL and the IC80 neutralization (TZM.bl) [24] was over 50 µg/mL. For the same substance, the IC50 neutralization (TZM.bl) [25] was 0.016 µg/mL, the IC80 neutralization (TZM.bl) [25] was 0.146 µg/mL and the IC50 neutralization (TZM.bl) [26] was 1.72 µg/mL. It also gave an IC80 neutralization (TZM.bl) [26] of 44.7 µg/mL, an IC50 neutralization (TZM.bl) [27] of 0.024 µg/mL and an IC80 neutralization (TZM.bl) [27] of 0.125 µg/mL. It also gave an IC50 neutralization (TZM.bl) [28] of 0.018 µg/mL, an IC80 neutralization (TZM.bl) [28] of 0.11 µg/mL and an IC50 neutralization (TZM.bl) [29] of 0.012 µg/mL. For the same substance, the IC80 neutralization (TZM.bl) [29] was 0.076 µg/mL, the IC50 neutralization (TZM.bl) [30] was over 50 µg/mL and the IC80 neutralization (TZM.bl) [30] was over 50 µg/mL. It also gave an IC50 neutralization (TZM.bl) [31] of 0.024 µg/mL and an IC80 neutralization (TZM.bl) [31] of 0.139 µg/mL.
